Target: T1, KIF1C-SNAPf-3XFLAG, full-length KIF1C (human, UniProt O43896 1-1103, TMR via the SNAP-tag (in the TIRF assays))
T1 sequence: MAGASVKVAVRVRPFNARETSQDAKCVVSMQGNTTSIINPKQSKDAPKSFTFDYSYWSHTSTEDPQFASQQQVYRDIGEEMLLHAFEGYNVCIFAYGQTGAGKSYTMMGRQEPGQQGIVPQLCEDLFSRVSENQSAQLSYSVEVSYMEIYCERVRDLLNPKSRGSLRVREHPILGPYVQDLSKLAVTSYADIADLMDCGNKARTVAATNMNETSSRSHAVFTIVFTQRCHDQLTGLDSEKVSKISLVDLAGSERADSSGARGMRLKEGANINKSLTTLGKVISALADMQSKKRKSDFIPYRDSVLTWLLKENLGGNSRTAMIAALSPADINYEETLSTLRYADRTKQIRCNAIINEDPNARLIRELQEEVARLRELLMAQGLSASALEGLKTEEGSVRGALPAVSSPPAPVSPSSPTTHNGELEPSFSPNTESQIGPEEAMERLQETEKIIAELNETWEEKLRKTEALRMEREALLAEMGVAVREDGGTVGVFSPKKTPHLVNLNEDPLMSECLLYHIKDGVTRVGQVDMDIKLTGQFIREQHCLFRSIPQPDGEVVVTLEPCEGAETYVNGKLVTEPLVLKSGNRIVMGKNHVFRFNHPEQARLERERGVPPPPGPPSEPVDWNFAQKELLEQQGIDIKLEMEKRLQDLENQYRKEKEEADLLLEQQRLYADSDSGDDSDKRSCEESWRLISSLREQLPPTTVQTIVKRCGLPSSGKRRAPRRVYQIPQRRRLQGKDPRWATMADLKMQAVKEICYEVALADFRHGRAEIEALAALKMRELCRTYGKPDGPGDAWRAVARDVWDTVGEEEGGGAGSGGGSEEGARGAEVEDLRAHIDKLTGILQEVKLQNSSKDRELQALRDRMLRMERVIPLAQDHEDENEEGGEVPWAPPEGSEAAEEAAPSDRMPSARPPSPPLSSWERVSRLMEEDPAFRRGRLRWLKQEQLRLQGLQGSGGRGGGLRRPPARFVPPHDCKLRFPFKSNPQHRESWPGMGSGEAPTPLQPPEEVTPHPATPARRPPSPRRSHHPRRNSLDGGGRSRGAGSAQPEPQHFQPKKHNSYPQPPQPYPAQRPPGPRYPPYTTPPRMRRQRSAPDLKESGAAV
Assay: single-molecule three-colour TIRF colocalisation on microtubules

B1: Halo-HOOK3(1-718)-3XFLAG, full-length HOOK3 (natural protein)
chain: MFSVESLERAELCESLLTWIQTFNVDAPCQTVEDLTNGVVMAQVLQKIDPAYFDENWLNRIKTEVGDNWRLKISNLKKILKGILDYNHEILGQQINDFTLPDVNLIGEHSDAAELGRMLQLILGCAVNCEQKQEYIQAIMMMEESVQHVVMTAIQELMSKESPVSAGNDAYVDLDRQLKKTTEELNEALSAKEEIAQRCHELDMQVAALQEEKSSLLAENQVLMERLNQSDSIEDPNSPAGRRHLQLQTQLEQLQEETFRLEAAKDDYRIRCEELEKEISELRQQNDELTTLADEAQSLKDEIDVLRHSSDKVSKLEGQVESYKKKLEDLGDLRRQVKLLEEKNTMYMQNTVSLEEELRKANAARSQLETYKRQVVELQNRLSEESKKADKLDFEYKRLKEKVDSLQKEKDRLRTERDSLKETIEELRCVQAQEGQLTTQGLMPLGSQESSDSLAAEIVTPEIREKLIRLQHENKMLKLNQEGSDNEKIALLQSLLDDANLRKNELETENRLVNQRLLEVQSQVEELQKSLQDQGSKAEDSVLLKKKLEEHLEKLHEANNELQKKRAIIEDLEPRFNNSSLKIEELQEALRKKEEEMKQMEERYKKYLEKAKSVIRTLDPKQNQGAAPEIQALKNQLQERDRLFHSLEKEYEKTKSQREMEEKYIVSAWYNMGMTLHKKAAEDRLASTGSGQSFLARQRQATSSRRSYPGHVQPATAR
modifications: Alexa-488 via the HaloTag (in the TIRF assays)
B1: binds.

From paper doi:10.1101/508887 (bioRxiv, 2018)
